Results as given in patent US20250352624A1, “SUPEROXIDE DISMUTASE AND USES THEREOF FOR PREVENTING OR TREATING DRY EYE SYNDROME” (GENOFOCUS, INC., priority 2021, published 2025).

What was measured:
Assay type in all cases: in vivo
[1] = system: experimental dry eye (EDE)-induced C57BL/6 mouse model; assay: Corneal fluorescent staining score in experimental dry eye mice; conditions: for corneal fluorescent staining score: total 0 to 16 points
Experimental: (§1) To induce experimental dry eye, 7- to 8-week-old C57BL/6 mice (purchased from Damool Science) were injected subcutaneously with scopolamine hydrochloride at 0.5 mg/0.2 ml three times a day under exposure to a ventilating device for 18 hours a day. The humidity was maintained at 30%, and the temperature was maintained at 25° C. The C57BL/6 mice were classified into 7 groups, depending on concentrations of the oral drug to be administered, as shown in Table 6.
(§2) After inducing experimental dry eye in the experimental mice, the drugs prepared in Example 3 were orally administered at 2 μL per dose once a day to the treatment groups (administered at 13:30 every day). In both eyes of all mice, at baseline, day 5, and day 10, tear volume and tear film break-up time were measured and corneal fluorescent staining score was examined. The mice were then sacrificed and tissue analysis was performed. Each group consisted of 6 animals.
1 μL of 1% fluorescent dye was instilled into the eyes of each mouse, followed by washing with saline. Subsequently, the cornea of each mouse was observed using a slit lamp microscope to score the degree of epithelial injury (the extent to which fluorescent staining occurred).

[2] = system: experimental dry eye (EDE)-induced C57BL/6 mouse model; assay: Malondialdehyde (MDA) by ELISA in cornea, conjunctiva and lacrimal gland; conditions: for MDA efficacy as compared with 0.05% CsA: 10 mg/kg oral
Experimental: as §1, §2
The corneas, conjunctivas, and lacrimal glands were excised from both eyes (6 eyes) of 3 animals in each group required for tissue analysis. The samples were homogenized in PBS, and then the lysates were centrifuged at 10000×g for 10 minutes at 4° C. The supernatant was taken and the total amount of protein was measured using the Bradford assay. MDA was detected using an ELISA (Enzyme-linked immunosorbent assay) kit (manufactured by Quantikine, R&D Systems, Minneapolis, MN) containing capture and detection antibodies according to the manufacturer's manual. Using ELISA, MDA levels in the cornea, conjunctiva, and lacrimal gland were measured and recorded, respectively.

[3] = system: experimental dry eye (EDE)-induced C57BL/6 mouse model; assay: Tear volume (phenol red thread) in experimental dry eye mice
Experimental: as §1, §2
Tear volume was determined as follows. A phenol red-impregnated cotton thread was brought into contact for 20 seconds with the conjunctival sac on the lateral canthus side of each mouse, and the length was measured using SMZ microscopy. Then, the measured length was converted into a volume by substituting it into a given formula (see Villareal A L, Farley W, Pflugfelder S C. Effect of topical ophthalmic epinastine and olopatadine on tear volume in mice. Eye Contact Lens. 2006; 32:272-6).

[4] = system: experimental dry eye (EDE)-induced C57BL/6 mouse model; assay: Apoptosis (TUNEL immunofluorescent staining); conditions: for number of necrotic cells in the cornea: TUNEL staining
Experimental: as §1
In both eyes of all mice, at baseline, day 5, and day 10, tear volume and tear film break-up time were measured and corneal fluorescent staining score was examined. The mice were then sacrificed and tissue analysis was performed. Each group consisted of 6 animals.
The eye and accessory tissues were excised from one eye of one animal in each group, fixed in 4% paraformaldehyde, embedded in paraffin, and then TUNEL staining was performed on two cross-sectional pieces of the tissue. […]

[5] = system: experimental dry eye (EDE)-induced C57BL/6 mouse model; assay: Tear film break-up time in experimental dry eye mice
Experimental: as §1, §2
To evaluate tear film stability, which is known to be the most important clinical factor in dry eye, tear film break-up time was measured. 1 μl of 1% fluorescent dye (fluorescein) was instilled into the lower conjunctival sac of each mouse, and then each mouse was allowed to blink about three times. Subsequently, the eyes were gently made open, and then the time (seconds) until the first defect occurred in the stained tear film was measured using a slit lamp microscope equipped with a cobalt blue filter. This was repeated three times to obtain the average value.

[6] = system: experimental dry eye (EDE)-induced C57BL/6 mouse model; assay: Reactive oxygen species (DCF-DA) by flow cytometry
Experimental: as §1, §2
The cornea, conjunctiva, and lacrimal gland were excised, sectioned with scissors, and then shaken with 0.5 mg/mL of collagenase type D (manufactured by Roche Applied Science, Indianapolis, IN, USA) at 37° C. for 60 minutes. The tissue was ground and then allowed to pass through a cell strainer, followed by centrifugation. The number of CD4+IFN-γ+T cells was calculated by performing flow cytometry with fluorescein-conjugated anti-CD4 antibody and phycoerythrin-conjugated anti-IFN-γ antibody, and the number of DCF-DA cells was calculated using the CM-H2DCFDA kit (manufactured by Thermo Fisher Scientific, Waltham, MA, USA).

[7] = system: experimental dry eye (EDE)-induced C57BL/6 mouse model; assay: Goblet cells in conjunctiva (PAS staining histology)
Experimental: as §1, §2
The eye and accessory tissues were excised from one eye of one animal in each group, fixed in 4% paraformaldehyde, embedded in paraffin, and then PAS staining was performed on two cross-sectional pieces of the tissue. In each piece, the density of goblet cells in the conjunctiva was calculated using a microscope and image analysis software.

[8] = before drug administration, 2.5 mg/kg oral group
[9] = before drug administration, 5 mg/kg oral group
[10] = before drug administration, 10 mg/kg oral group
[11] = day 5 of administration, 2.5 mg/kg oral once a day
[12] = day 5 of administration, 5 mg/kg oral once a day
[13] = day 5 of administration, 10 mg/kg oral once a day
[14] = day 10 of administration, 2.5 mg/kg oral once a day
[15] = day 10 of administration, 5 mg/kg oral once a day
[16] = day 10 of administration, 10 mg/kg oral once a day
[17] = days 5 and 10, 0.05% CsA eye drop, SodA2 2.5, 5 and 10 mg/kg oral
[18] = conjunctiva, 2.5 mg/kg oral once a day
[19] = conjunctiva, 5 mg/kg oral once a day
[20] = conjunctiva, 10 mg/kg oral once a day
[21] = cornea, 2.5 mg/kg oral once a day
[22] = cornea, 5 mg/kg oral once a day
[23] = cornea, 10 mg/kg oral once a day
[24] = lacrimal gland, 2.5 mg/kg oral once a day
[25] = lacrimal gland, 5 mg/kg oral once a day
[26] = lacrimal gland, 10 mg/kg oral once a day

B1: SodA2: variant Mn-SOD of Bacillus amyloliquefaciens GF423 sodA, Asn73 and Asn136 replaced with Asp, SEQ ID NO: 4; given orally shellac-coated, mixed with dextrin (protein, listed as Bacillus amyloliquefaciens)
chain: MAYKLPELPYAYDALEPHIDKETMTIHHTKHHNTYVTNLNKAIEGSALAEKSVDELVADLNAVPEDIRTAVRDDGGGHANHSLFWTLLSPNGGGEPTGELAEEIKSTFGSFDQFKEKFAAAAAGRFGSGWAWLVVDDGKLEITSTPNQDSPLSEGKTPVLGLDVWEHAYYLNYQNRRPDYISAFWNVVNWDEVARLYSEAK
modifications: shellac coating; dextrin mixture
**Q.** B1 was tested. Which “corneal fluorescent staining score as compared with the 0.05% CsA group” value ([1]; 5 mg/kg oral) did it give?
**A.** more significant decrease

**Q.** What about the “corneal fluorescent staining score” value [1, 8] of the same molecule?
**A.** 9.2±1.7 points

**Q.** What about the “corneal fluorescent staining score” value [1, 9] of the same molecule?
**A.** 9.4±1.7 points

**Q.** And the “corneal fluorescent staining score” value [1, 10]?
**A.** 9.3±1.7 points

**Q.** What about the “corneal fluorescent staining score” value [1, 11] of the same molecule?
**A.** 10.4±1.9 points

**Q.** What about the “corneal fluorescent staining score” value [1, 12] of the same molecule?
**A.** 9.9±2.5 points

**Q.** And the “corneal fluorescent staining score” value [1, 13]?
**A.** 10.1±2.9 points

**Q.** And the “corneal fluorescent staining score” value [1, 14]?
**A.** 8.8±2 points

**Q.** What about the “corneal fluorescent staining score” value [1, 15] of the same molecule?
**A.** 7.8±1.9 points

**Q.** What about the “corneal fluorescent staining score” value [1, 16] of the same molecule?
**A.** 8.2±1.9 points

**Q.** And the “corneal fluorescent staining score as compared with the EDE and vehicle groups” value [1, 17]?
**A.** significant decrease

**Q.** And the “MDA efficacy as compared with 0.05% CsA” value ([2]; conjunctiva)?
**A.** superior

**Q.** What about the “MDA efficacy as compared with 0.05% CsA” value ([2]; cornea, lacrimal gland) of the same molecule?
**A.** similar

**Q.** What about the “MDA concentration, Conjunctiva” value [2, 18] of the same molecule?
**A.** 21.5 ± 9.26 pmol/mL

**Q.** And the “MDA concentration, Conjunctiva” value [2, 19]?
**A.** 19.0 ± 7.17 pmol/mL

**Q.** And the “MDA concentration, Conjunctiva” value [2, 20]?
**A.** 16.3 ± 9.12 pmol/mL

**Q.** And the “MDA concentration as compared with the EDE and vehicle groups” value ([2]; cornea, conjunctiva and lacrimal gland, CsA and oral SodA2 groups)?
**A.** decreased

**Q.** What about the “MDA concentration, Cornea” value [2, 21] of the same molecule?
**A.** 22.7 ± 13.8 pmol/mL

**Q.** And the “MDA concentration, Cornea” value [2, 22]?
**A.** 20.2 ± 14.0 pmol/mL

**Q.** What about the “MDA concentration, Cornea” value [2, 23] of the same molecule?
**A.** 18.5 ± 10.6 pmol/mL

**Q.** What about the “MDA concentration, Lacrimal gland” value [2, 24] of the same molecule?
**A.** 22.6 ± 7.72 pmol/mL

**Q.** And the “MDA concentration, Lacrimal gland” value [2, 25]?
**A.** 18.8 ± 11.6 pmol/mL

**Q.** And the “MDA concentration, Lacrimal gland” value [2, 26]?
**A.** 22.5 ± 11.4 pmol/mL

**Q.** What about the “tear volume as compared with the 0.05% CsA group” value ([3]; 5 mg/kg oral) of the same molecule?
**A.** more significant increase

**Q.** And the tear volume [3, 8]?
**A.** 0.024 ± 0.003 µL

**Q.** And the tear volume [3, 9]?
**A.** 0.022 ± 0.004 µL

**Q.** And the tear volume [3, 10]?
**A.** 0.023 ± 0.004 µL

**Q.** And the tear volume [3, 11]?
**A.** 0.026 ± 0.005 µL

**Q.** What about the tear volume [3, 12] of the same molecule?
**A.** 0.026 ± 0.005 µL

**Q.** And the tear volume [3, 13]?
**A.** 0.026 ± 0.005 µL

**Q.** And the tear volume [3, 14]?
**A.** 0.027 ± 0.005 µL

**Q.** What about the tear volume [3, 15] of the same molecule?
**A.** 0.03 ± 0.005 µL

**Q.** And the tear volume [3, 16]?
**A.** 0.028 ± 0.004 µL

**Q.** And the “tear volume as compared with the EDE and vehicle groups” value [3, 17]?
**A.** significant increase

**Q.** And the “number of necrotic cells in the cornea” value ([4]; 2.5 mg/kg oral once a day)?
**A.** 6.2±1.1 cells/100 μm

**Q.** What about the “number of necrotic cells in the cornea” value ([4]; 5 mg/kg oral once a day) of the same molecule?
**A.** 4.0±1.3 cells/100 μm

**Q.** What about the “number of necrotic cells in the cornea” value ([4]; 10 mg/kg oral once a day) of the same molecule?
**A.** 4.6±1.3 cells/100 μm

**Q.** What about the “number of dead cells in the cornea as compared with the EDE and vehicle groups” value ([4]; groups treated with CsA and oral SodA2) of the same molecule?
**A.** significantly decreased

**Q.** What about the “tear film break-up time as compared with the 0.05% CsA group” value ([5]; 5 mg/kg and 10 mg/kg oral) of the same molecule?
**A.** similar

**Q.** What about the “tear film break-up time” value [5, 8] of the same molecule?
**A.** 1.44 ± 0.15 s

**Q.** What about the “tear film break-up time” value [5, 9] of the same molecule?
**A.** 1.42 ± 0.16 s

**Q.** And the “tear film break-up time” value [5, 10]?
**A.** 1.41 ± 0.25 s

**Q.** And the “tear film break-up time” value [5, 11]?
**A.** 1.23 ± 0.2 s

**Q.** And the “tear film break-up time” value [5, 12]?
**A.** 1.31 ± 0.3 s

**Q.** And the “tear film break-up time” value [5, 13]?
**A.** 1.28 ± 0.3 s

**Q.** And the “tear film break-up time” value [5, 14]?
**A.** 1.21 ± 0.3 s

**Q.** What about the “tear film break-up time” value [5, 15] of the same molecule?
**A.** 1.28 ± 0.3 s

**Q.** And the “tear film break-up time” value [5, 16]?
**A.** 1.3 ± 0.3 s

**Q.** And the “tear film break-up time as compared with the EDE and vehicle groups” value [5, 17]?
**A.** significant increase

**Q.** And the “amount of reactive oxygen species generated” value (“amount” for short) [6, 18]?
**A.** 55.13±7.41%

**Q.** What about the “amount” value [6, 19] of the same molecule?
**A.** 57.63±8.16%

**Q.** What about the “amount” value [6, 20] of the same molecule?
**A.** 53.29±1.19%

**Q.** What about the “effect of decreasing generation of reactive oxygen species as compared with the CsA group” value ([6]; cornea, 2.5 mg/kg oral) of the same molecule?
**A.** better effect

**Q.** And the “amount” value [6, 21]?
**A.** 33.57±26.51%

**Q.** And the “amount” value [6, 22]?
**A.** 54.53±13.53%

**Q.** And the “amount” value [6, 23]?
**A.** 57.38±23.43%

**Q.** And the “amount” value [6, 24]?
**A.** 59.05±10.77%

**Q.** What about the “amount” value [6, 25] of the same molecule?
**A.** 56.03±6.37%

**Q.** And the “amount” value [6, 26]?
**A.** 49.92±4.19%

**Q.** What about the “number of goblet cells in the conjunctiva” value ([7]; 2.5 mg/kg oral once a day) of the same molecule?
**A.** 27.9±6.9 cells/100 μm

**Q.** What about the “number of goblet cells as compared with the 0.05% CsA group” value ([7]; 5 mg/kg oral) of the same molecule?
**A.** more significant increase

**Q.** And the “number of goblet cells in the conjunctiva” value ([7]; 5 mg/kg oral once a day)?
**A.** 35.8±10.2 cells/100 μm

**Q.** What about the “number of goblet cells in the conjunctiva” value ([7]; 10 mg/kg oral once a day) of the same molecule?
**A.** 32.2±3.9 cells/100 μm

**Q.** What about the “number of goblet cells in the conjunctiva, change in treatment groups” value ([7]; all treatment groups: 0.05% CsA, SodA2 2.5, 5 and 10 mg/kg oral) of the same molecule?
**A.** significant increase
